Data taken from US9896489B2, “Family of synthetic polynucleotide-binding peptides and uses thereof” (Eastern Virginia Medical School, priority 2012, dated 2018).

B1: Purβ: Pur family protein, GST-tagged, purified from bacterial lysate (protein, UniProt Q96QR8 2-312, looked up)
Transcriptional regulator …: ADGDSGSERGGGGGPCGFQPASRGGGEQETQELASKRLDIQNKRFYLDVKQNAKGRFLKIAEVGAGGSKSRLTLSMAVAAEFRDSLGDFIEHYAQLGPSSPEQLAAGAEEGGGPRRALKSEFLVRENRKYYLDLKENQRGRFLRIRQTVNRGGGGFGAGPGPGGLQSGQTIALPAQGLIEFRDALAKLIDDYGGEDDELAGGPGGGAGGPGGGLYGELPEGTSITVDSKRFFFDVGCNKYGVFLRVSEVKPSYRNAITVPFKAWGKFGGAFCRYADEMKEIQERQRDKLYERRGGGSGGGEESEGEEVDED
modifications: GST tag
notes: Pur family protein, GST-tagged, purified from bacterial lysate
B2: Purα: sequence-specific single-stranded DNA-binding protein; GST-tagged, purified from bacteria in the EMSA (protein)
chain: MADRDSGSEQGGAALGSGGSLGHPGSGSGSGGGGGGGGGGGGSGGGGGGAPGGLQHETQELASKRVDIQNKRFYLDVKQNAKGRFLKIAEVGAGGNKSRLTLSMSVAVEFRDYLGDFIEHYAQLGPSQPPDLAQAQDEPRRALKSEFLVRENRKYYMDLKENQRGRFLRIRQTVNRGPGLGSTQGQTIALPAQGLIEFRDALAKLIDDYGVEEEPAELPEGTSLTVDNKRFFFDVGSNKYGVFMRVSEVKPTYRNSITVPYKVWAKFGHTFCKYSEEMKKIQEKQREKRAACEQLHQQQQQQQEETAAATLLLQGEEEGEED
modifications: left off: a dimerising Fc or GST
notes: GST-tagged, purified from bacteria in the EMSA
B3: Gst-Purα: GST fusion of Purα expressed in bacteria, bound to glutathione-agarose beads (protein)
chain: B2 chain
modifications: left off: a dimerising Fc or GST

Assays:
[1] = test system: ALS ssDNA (GGGGCC hexanucleotide repeat expanded at C9ORF72); assay: Electrophoretic mobility shift assay with ALS ssDNA; type: binding; details: for binding of ALS repeat (qualitative): DNA concentration courses
Procedure: Infrared oligonucleotides representing a GGGGCC hexanucleotide repeat expanded at C9ORF72 in ALS patients were custom ordered and are referred to as ALS ssDNA. 4% polyacrylamide gel electrophoresis was performed using IR-labeled oligonucleotides and imaged using the Li-Cor Odyssey IR imaging instrumentation and software.
Electrophoretic Mobility Shift Assay-Various combinations of Purα, Purβ, TZIP, and IR-labeled oligonucleotides were prepared in the 5× Johnson binding buffer (Bergemann, Andrew D and Johnson, Edward M (1992), The HeLa Pur Factor Binds Single-Stranded DNA at a Specific Element Conserved in Gene Flanking Regions and Origins of DNA Replication. Molecular and Cellular Biology, vol 12:3 (1257-1265), incorporated by reference herein in its entirety), adjusted to 5 mM DTT, 5 mM EDTA, and 0.5% Tween 20. 4% polyacrylamide gel electrophoresis was performed on samples and imaged with the Li-Cor Odyssey instrumentation and software. Densitometry was performed on the DNA concentration course experiments using the Li-Cor Odyssey software.
A Kd value obtained for Purβ was complex and not readily interpretable.

[2] = test system: FXS ssDNA (G-rich trinucleotide DNA repeats at FMR1); assay: Electrophoretic mobility shift assay with FXS ssDNA; type: binding
Description: A GE Microspin GST purification module was used to purify GST-tagged Purα and Purβ from bacterial lysate. Polyacrylamide gel electrophoresis with SDS-Page gels and molecular markers were used to verify that GST, Purα, and Purβ were expressed and purified. Expressed proteins were detected using antibodies against Purα and Purβ, including monoclonal mouse anti-Pur antibody developed in Johnson laboratory (clone 10B12) and polyclonal antibody against Purβ (Abcam). Polyacrylamide gel electrophoresis with TBE buffer was used for gel-mobility shift assay. Infrared-labeled oligonucleotides representing G-rich trinucleotide DNA repeats at FMR1 in patients with Fragile X Syndrome (FXS) were custom ordered and are referred to herein as FXS ssDNA. Infrared-labeled oligonucleotide substrates in agarose and polyacrylamide gels were detected through the use of the Odyssey (LICOR) instrumentation and software. […] When Purα and Purβ are combined (FIG. 17), by increasing the amount of Purβ, the DNA is shifted more to the top of the gel. Therefore, there is more binding of the proteins to the DNA. […] In FIG. 19, TZIP enhances the mobility shift of ssDNA FXS in the presence of Purα.

[3] = test system: ras-transformed NIH3T3 cells; assay: Anchorage independent growth of ras-transformed NIH3T3 cells; type: cell-based; details: pBABE and pBKPurα transfected, puromycin selected
Description: Purα also antagonizes colony formation and anchorage-independent growth related to ras-transformation of NIH3T3 cells. Ras-transformed cells were transfected with pBABE (empty vector) and either pBK (empty vector) or pBKPurα expression construct and selected for puromycin resistance. Referring to FIG. 4, panel A (pBABE) and panel B (pBABE+pBK) show anchorage independent cell growth.

NIH3T3 cells = assay: Purα injected into NIH3T3 cells at cell-cycle transition points; type: cell-based
Procedure: Purα was injected into NIH3T3 cells during various cell-cycle transition points to determine the effects of elevated Purα levels at different phases of the cell cycle. […] In FIG. 2, the clear bar represents dividing cells, the black bar represents non-dividing cells, and the shaded bar represents rapid cell death.

[4] = test system: ras-transformed and non-transformed NIH3T3 cells; assay: Cell cycle progression (FACS DNA content) in cells stably transfected to over-express Purα; type: cell-based; details: two to five-fold elevated levels of Purα in stably transfected cell lines
Description: Cells were released from a double thymidine block, which arrests cells upon entry to S phase, into normal growth medium. Samples were subjected to fluorescence-activated cell sorting to determine cellular DNA content.
Stably transfected or co-transfected pools and transfected clones are shown on the right.
A pool of ras-transformed cells were stably transfected or co-transfected with the following: (a) pBABE, an empty vector; (b) pBABE+pBK, both empty expression vectors; (c) pBABE+pBKPurα, to over-express Purα; (d) pBABE+pBKPurα^low to express Purα at a level near that of endogenous Purα; (e) pBABE+pBKPurα^high to express Purα at a level nearly 5-fold that of endogenous Purα; (f) pEBV, an empty expression vector (g) pEBVPurα to over-express Purα. 4N indicates completion of DNA synthesis.

[5] = target: T1, p110^RB, the hypophosphorylated form of Rb (Homo sapiens, UniProt P06400); assay: GST bead pull-down of Rb, anti-Rb blot; type: binding; details: protein on glutathione-agarose beads
T1 construct: In proliferating cells, the Rb protein existed in several states of phosphorylation; endogenous in cells; host or cells: WR2E3 cells (inferred as the source of the extract put on the beads)
T1 sequence (P06400 1-928): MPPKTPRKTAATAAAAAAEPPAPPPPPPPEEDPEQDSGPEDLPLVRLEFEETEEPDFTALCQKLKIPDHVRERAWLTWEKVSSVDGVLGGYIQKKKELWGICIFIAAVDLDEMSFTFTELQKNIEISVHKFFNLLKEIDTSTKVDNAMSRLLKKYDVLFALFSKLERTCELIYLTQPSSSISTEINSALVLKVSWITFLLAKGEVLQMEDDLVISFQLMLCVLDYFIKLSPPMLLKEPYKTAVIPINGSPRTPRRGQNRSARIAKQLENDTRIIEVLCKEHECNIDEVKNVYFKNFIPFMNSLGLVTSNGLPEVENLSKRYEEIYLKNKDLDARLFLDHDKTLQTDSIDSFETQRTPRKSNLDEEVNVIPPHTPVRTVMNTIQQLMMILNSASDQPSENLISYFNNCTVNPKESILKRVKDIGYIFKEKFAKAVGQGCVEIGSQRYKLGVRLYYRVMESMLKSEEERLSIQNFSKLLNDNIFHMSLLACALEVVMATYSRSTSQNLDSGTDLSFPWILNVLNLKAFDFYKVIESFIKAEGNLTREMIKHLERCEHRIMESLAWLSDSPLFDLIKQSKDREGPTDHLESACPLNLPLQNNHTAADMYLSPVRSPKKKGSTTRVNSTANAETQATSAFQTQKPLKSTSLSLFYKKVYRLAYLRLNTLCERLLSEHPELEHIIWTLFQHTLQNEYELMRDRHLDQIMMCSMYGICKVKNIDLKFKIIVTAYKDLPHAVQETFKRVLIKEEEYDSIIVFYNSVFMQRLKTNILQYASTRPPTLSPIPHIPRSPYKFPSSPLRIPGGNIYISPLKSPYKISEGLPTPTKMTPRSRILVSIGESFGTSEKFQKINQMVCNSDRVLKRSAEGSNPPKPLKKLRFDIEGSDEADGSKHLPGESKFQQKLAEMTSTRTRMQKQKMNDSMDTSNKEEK
Procedure: Rb was detected in extracts of monkey CV-1 cells complexed with Purα. These complexes can be immunoextracted from cell lysates using monoclonal antibodies to either Purα or Rb.
Proteins expressed in bacteria were bound to glutathione-agarose beads. Unfused GST was prepared in the same manner for use as a control. Beads containing equivalent amounts of each protein were used for each lane. Beads were collected, washed, and bound proteins were subjected to electrophoresis. The proteins were then blotted and probed with anti-Rb monoclonal antibody.
In contrast, binding of Rb to control GST alone was nil. IPP represents Rb immunoprecipitated from WR2E3 cells using rabbit polyclonal anti-Rb antibody. In proliferating cells, the Rb protein existed in several states of phosphorylation, the hypophosphorylated state, p110^RB, migrating more rapidly on SDS gels (lane 1).

Molecule | binding of ALS repeat (qualitative) [1] | binding / mobility shift of ssDNA FXS (qualitative) [2] | Kd ([1]; densitometry of DNA concentration course) | anchorage independent growth [3] | effect on cell cycle / cell fate (NIH3T3 cells; introduction of Purα in G1 phase) | effect on cell cycle / cell fate (NIH3T3 cells; introduction of Purα in later phases, such as G2-M phase) | S phase entry and progression [4] | binding to Rb [5]
B1 | bound the ALS repeat to a much smaller degree | does not shift the ssDNA FXS as strongly as Purα | – | – | – | – | – | –
B2 | strongly bind the ALS repeat in low concentrations | – | 16 nM | repressed anchorage independent growth | arrested cells at the G1-S boundary, causing programmed cell death | arrested, but did not prevent, complete replication of the genome | retarded entry into and progression through S phase | –
B3 | – | – | – | – | – | – | – | bind exclusively to the hypophosphorylated forms of p110^RB
